Laboratory results from article PMC13267735, “Structural basis of liver de-targeting and neuronal tropism of CNS-targeted AAV capsids” (Molecular therapy : the journal of the American Society of …, 2026).

What was measured:
Details in all cases: both partners purified
AAV9-X1.1 capsid = molecular target: T1, AAV9-X1.1 capsid (adeno-associated virus serotype 9 (AAV9), UniProt Q6JC40 1-736, 452NGSGQNQ458 to 452DGAATKN458 | GNNTRSV inserted between 588 and 589); experiment: BLI; BLItz; biotin-conjugated CaptureSelect AAV9 nanobody on streptavidin biosensor, AAV (5x10^12 vg/ml) loaded as biolayer, MBP-tagged PKD2 as analyte at 1.25-80 uM, 120 s association and 120 s dissociation; DPBS, 1% BSA, 0.02% Tween-20; Kd averaged from 3 experiments
T1 construct: AAV9 capsid protein VP1 with the AAV9-X1 VR-VIII 7-mer insertion GNNTRSV between residues 588 and 589 and the CAP-B10 7-mer in VR-IV (452-458 DGAATKN); capsid holds VP1, VP2 and VP3; Whole virus capsid packaging an eGFP genome (SCP1 promoter); VP1/VP2/VP3 assembly; source: HEK293T, triple-transfected (pHelper, capsid and genome plasmids), purified (iodixanol gradient)

eB.24 capsid [1] = molecular target: T2, eB.24 capsid (adeno-associated virus serotype 9 (AAV9), UniProt Q6JC40 1-736, S454A | Q456T | 587-588 AQ to DGTLAVPFK); experiment: as above
T2 construct: capsid holds VP1, VP2 and VP3; Whole virus capsid packaging an eGFP genome; VP1/VP2/VP3 assembly; also called PHP.eB.24; source: HEK293T, triple-transfected (pHelper, capsid and genome plasmids), purified (iodixanol gradient)

AAV-PHP.eB capsid [2] = molecular target: T3, AAV-PHP.eB capsid (adeno-associated virus serotype 9 (AAV9), UniProt Q6JC40 1-736, 587-588 AQ to DGTLAVPFK); experiment: as above
T3 construct: AAV9 capsid protein VP1 with the PHP.eB VR-VIII 7-mer insertion TLAVPFK between residues 588 and 589 and two flanking point mutations (587-588 AQ to DG); capsid holds VP1, VP2 and VP3; Whole virus capsid packaging an eGFP genome; VP1/VP2/VP3 assembly; source: HEK293T, triple-transfected (pHelper, capsid and genome plasmids), purified (iodixanol gradient)

AAV.CAP-B10 capsid [3] = molecular target: T4, AAV.CAP-B10 capsid (adeno-associated virus serotype 9 (AAV9), UniProt Q6JC40 1-736, 452NGSGQNQ458 to 452DGAATKN458 | 587-588 AQ to DGTLAVPFK); experiment: as above
T4 construct: capsid holds VP1, VP2 and VP3; Whole virus capsid packaging an eGFP genome; VP1/VP2/VP3 assembly; source: HEK293T, triple-transfected (pHelper, capsid and genome plasmids), purified (iodixanol gradient)

AAV9-X1 capsid = molecular target: T5, AAV9-X1 capsid (adeno-associated virus serotype 9 (AAV9), UniProt Q6JC40 1-736, GNNTRSV inserted between 588 and 589); experiment: as above
T5 construct: capsid holds VP1, VP2 and VP3; Whole virus capsid packaging an eGFP genome; VP1/VP2/VP3 assembly; source: HEK293T, triple-transfected (pHelper, capsid and genome plasmids), purified (iodixanol gradient)

AAV9 (wild-type) capsid = molecular target: T6, AAV9 (wild-type) capsid (adeno-associated virus serotype 9 (AAV9), UniProt Q6JC40 1-736); experiment: as above
T6 construct: AAV9 capsid protein VP1; VR-IV 452-458 NGSGQNQ, VR-VIII 587-590 AQAQ; Whole virus capsid packaging an eGFP genome; also called wild-type AAV9; source: HEK293T, triple-transfected (pHelper, capsid and genome plasmids), purified (iodixanol gradient)

AAV9-B10 capsid = molecular target: T7, AAV9-B10 capsid (adeno-associated virus serotype 9 (AAV9), UniProt Q6JC40 1-736, 452NGSGQNQ458 to 452DGAATKN458); experiment: as above
T7 construct: AAV9 capsid protein VP1 with the CAP-B10 7-mer in VR-IV (452-458 DGAATKN) and unaltered AAV9 VR-VIII; capsid holds VP1, VP2 and VP3; Whole virus capsid packaging an eGFP genome; VP1/VP2/VP3 assembly; source: HEK293T, triple-transfected (pHelper, capsid and genome plasmids), purified (iodixanol gradient)

eB.24 capsid [4] = molecular target: T2, eB.24 capsid; experiment: pull-down; 6xHis-tagged bait (AAVR-PKD2 100-200 pmol or His-Fc-LY6A 30-60 pmol) on Ni-NTA resin, prey AAVs (0.05 pmol); DPBS with 20 mM imidazole, 1 hr at 4 C; eluted with 150 mM imidazole; western blot with anti-VP1/VP2/VP3 and anti-6xHis
AAV-PHP.eB capsid [5] = molecular target: T3, AAV-PHP.eB capsid; experiment: as above
AAV.CAP-B10 capsid [6] = molecular target: T4, AAV.CAP-B10 capsid; experiment: as above

| Binder | Kd (AAV9-X1.1 capsid) [µM] | Kd (eB.24 capsid [1]) [µM] | Kd (AAV-PHP.eB capsid [2]) [µM] | Kd (AAV.CAP-B10 capsid [3]) [µM] | Kd (AAV9-X1 capsid) [µM] | Kd (AAV9 (wild-type) capsid) [µM] | Kd (AAV9-B10 capsid) [µM] | binding result (eB.24 capsid [4]) | binding result (AAV-PHP.eB capsid [5]) | binding result (AAV.CAP-B10 capsid [6]) |
| --- | --- | --- | --- | --- | --- | --- | --- | --- | --- | --- |
| PKD2 domain of AAVR (AA 401-498) fused to maltose binding protein and 6xHis (domain or fragment, AAV receptor (AAVR), polycystic kidney disease domain 2 (PKD2), AA 401-498; Construct for biolayer interferometry; monomer fraction from SEC was used; also called AAVR-PKD2; MBP-tagged AAVR-PKD2; source: E. coli BL21 (DE3)-RIPL, purified (amylose resin, Superdex 200 SEC)) EPRKNRPPIAIVSPQFQEISLPTTSTVIDGSQSTDDDKIVQYHWEELKGPLREEKISEDTAILKLSKLVPGNYTFSLTVVDSDGATNSTTANLTVNKA | 19 | 24 | 14 | 61 | 6 | 11 | 47 | – | – | – |
| LY6A (AA 1-109) derived from C57BL/6 mice with Fc (human IgG1), Myc and 6xHis tags (Fc fusion, mouse (C57BL/6), UniProt P05533 27-109, looked up, signal peptide in the construct; LY6A, C57BL/6 mouse, AA 1-109; also called His-Fc-LY6A; source: HEK293T, transiently transfected, secreted into conditioned media, purified (Ni-NTA)) LECYQCYGVPFETSCPSITCPYPDGVCVTQEAAVIVDSQTRKVKNNLCLPICPPNIESMEILGTKVNVKTSCCQEDLCNVAVP | – | – | – | – | – | – | – | binds | binds | binds |
